Biological target: truncated NpSRII/NpHtrII137 complex (Natronomonas pharaonis) (UniProt P42196)
Experiment: SAXS; detergent-solubilised (DDM) complex, peak fractions after gel filtration; low salt (150 mM NaCl); 0.57 mg/ml full-length and 0.78 mg/ml truncated complex; BM29 (ESRF); curves fitted with atomistic dimer models with a detergent belt (MEMPROT, CRYSOL3)

Chain of truncated NpSRII/NpHtrII137 complex (P42196 whole entry, the tested form may be a part): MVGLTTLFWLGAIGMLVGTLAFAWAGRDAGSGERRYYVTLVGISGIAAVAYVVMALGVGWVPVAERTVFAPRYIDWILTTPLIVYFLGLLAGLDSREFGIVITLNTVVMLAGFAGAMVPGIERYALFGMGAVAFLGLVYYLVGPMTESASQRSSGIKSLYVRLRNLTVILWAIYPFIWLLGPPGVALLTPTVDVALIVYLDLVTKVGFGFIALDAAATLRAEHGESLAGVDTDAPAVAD
Chain of truncated NpSRII/NpHtrII137 complex (P42259 1-136): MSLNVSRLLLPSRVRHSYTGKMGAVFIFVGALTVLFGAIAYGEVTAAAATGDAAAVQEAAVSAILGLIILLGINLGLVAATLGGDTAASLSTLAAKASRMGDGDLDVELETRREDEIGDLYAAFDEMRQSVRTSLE

“truncated NpSRII/NpHtrII137 complex (from UniProt P42196 1-239; P42259 1-136)” showed a stoichiometry N of 2.

From publication PMC8144572
